For assay [1], the target named is T1, extracellular domain of the alpha subunit of the human FcεRI (aa 1-176), produced in baculovirus infected … (human, UniProt P12319 26-201, N-linked carbohydrate (NAG on Asn21 seen in the crystal); derivatised with PDEA for thiol coupling to the chip in the biosensor assay).
T1 construct: range 1-176; Residues 1-176 are probably counted without the signal peptide; also called FcεRIα; soluble FcεRI
T1 sequence (looked up): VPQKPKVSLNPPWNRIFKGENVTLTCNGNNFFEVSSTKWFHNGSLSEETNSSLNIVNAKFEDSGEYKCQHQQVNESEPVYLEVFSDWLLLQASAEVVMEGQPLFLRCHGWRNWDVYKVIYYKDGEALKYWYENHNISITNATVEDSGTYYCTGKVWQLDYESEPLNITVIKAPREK
Briefly: SPR biosensor (BIAcore), peptide over immobilized FcεRIα, steady-state saturation curve, 4-parameter fit. The procedure:
*peptide is a dimer. SEQ ID NO: describes each monomer of the dimer. "ava" = amino-valeric acid Several peptides were also tested in a direct-binding assay using a surface plasmon resonance biosensor (Lofas & Johnsson, *J. Chem. Soc. Commun.* 21, 1526–1528 (1990)). FcεRIα, produced in baculovirus infected insect cells, was immobilized by the surface thiol method (BIAcore Methods Manual Supplement 5a, BIAcore, Inc., Piscataway, N.J.). Briefly, receptor was reacted with 2-(2-pyridinyldithio)ethaneamine hydrochloride (PDEA; Natake & Swaisgood, *J. Biochem.* 74, 77–86 (1973)), desalted into 10 mM sodium acetate (pH 4.8) and stored in aliquots at −80° C. Thawed PDEA-receptor was injected over carboxymethyl-dextran (B1 or CM5, BIAcore, Inc.) biosensor chips preactivated with N-ethyl-N'-(3-dimethylaminopropyl)-carbodiimide hydrochloride (EDC) and N-hydroxysuccinimide (NHS), cystamine, and DTT. Following coupling, reactive groups on the chip were quenched with PDEA and ethanolamine. Serial dilutions of peptide in running buffer (phosphate-buffered saline containing 0.05% Tween-20, 0.01% sodium azide) were injected over the immobilized receptor, and the net amount of peptide bound at steady-state was measured as the net change in response (RU) at a point just prior to termination of peptide injection, compared to a running-buffer baseline. Binding affinities (Table 10) are reported as the midpoint ($EC50$) of a 4-parameter fit to the peptide saturation curve. In the case of IGE134 (SEQ ID NOS:), the value shown indicates the Kd calculated from the rate constants, $kon$ and $koff$. The results of binding assays (Table 8) correlate well with those of inhibition assays (Table 7).
(In SPR one partner is held on a chip, and binding of the other changes the refractive index at the surface.)

In assay [2] the target is T2, alpha subunit of the human FcεRI receptor expressed on cells (human, UniProt P12319 26-257).
T2 construct: whole, on cells; on rat basophil RBL-48 cells in the histamine release assay; also called CHO FcεRI+ cells; cell surface expressed FcεRI
T2 sequence (looked up): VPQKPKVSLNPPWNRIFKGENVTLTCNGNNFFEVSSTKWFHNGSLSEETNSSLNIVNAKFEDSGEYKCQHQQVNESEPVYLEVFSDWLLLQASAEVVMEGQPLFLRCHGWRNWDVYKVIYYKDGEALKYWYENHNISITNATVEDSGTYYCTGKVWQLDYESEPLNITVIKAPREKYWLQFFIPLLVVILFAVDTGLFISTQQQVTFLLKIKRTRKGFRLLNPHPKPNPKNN
Briefly: IgE inhibition assay (Table 9).

Bridges are numbered along the chain shown (N, C = ends). Where no end group is shown, it is not given here.

Consider 21 molecules from patent US7101851 (dated 2006).

B1: IGE122 (peptide)
peptide: VQCPHFCYVGGKALCPDVCYV-NH2
modifications: disulfide (positions not given here); also: oxidized, disulfide-bonded Cys, pairing not given here
Usually EC50 stands for the concentration that produces a half-maximal response. A lower EC50 goes with higher potency in that assay. B1: in assay [1], the EC50 turned out to be 150 nM.

B2: IGE128 (peptide)
peptide: KSCPLWCYVGGKALCPDVCYV-NH2
modifications: disulfide (positions not given here); not fully specified (bridges); also: oxidized, disulfide-bonded Cys, pairing not given here
B2 returned an EC50 in assay [1] of 240 nM. On to VQCPHFCYFGGAELCPGVCYV-NH2 (disulfide 3-15, 7-19) [IGE136], for which the “fold difference in activity against IGE135” value in assay [2] was roughly 2 fold.

B3: IGE083 (peptide)
peptide: ALCPAVCYVGGKALCPDVCYV-NH2
modifications: disulfide 7-15, 3-19; N-terminus assumed
SMILES: CC(C)C[C@H](NC(=O)[C@H](C)N)C(=O)N[C@H]1CSSC[C@@H](C(=O)N[C@@H](Cc2ccc(O)cc2)C(=O)N[C@H](C(N)=O)C(C)C)NC(=O)[C@H](C(C)C)NC(=O)[C@H](CC(=O)O)NC(=O)[C@@H]2CCCN2C(=O)[C@@H]2CSSC[C@H](NC(=O)[C@H](C(C)C)NC(=O)[C@H](C)NC(=O)[C@@H]3CCCN3C1=O)C(=O)N[C@@H](Cc1ccc(O)cc1)C(=O)N[C@@H](C(C)C)C(=O)NCC(=O)NCC(=O)N[C@@H](CCCCN)C(=O)N[C@@H](C)C(=O)N[C@@H](CC(C)C)C(=O)N2
notes: single chain dimer form of IGE089 with Ala17Asp
Regarding B3, the half-maximal effective concentration (EC50) in assay [1] worked out at 1100 nM.

B4: IGE132 (peptide)
peptide: VQCPHFCYVGGHALCPDVCYVGR-OH
modifications: cysteine pairing not given here
notes: produced biosynthetically as a fusion to the Z-domain of protein A and cleaved off with trypsin; free C-terminus
Consider B4, for which, in assay [1], the EC50 was determined as 680 nM.

B5: IGE131 (peptide)
peptide: VQCPHFCYVGGKVQCPHFCYV-NH2
modifications: disulfide (positions not given here); not fully specified (bridges); also: oxidized, disulfide-bonded Cys, pairing not given here
Take B5: in assay [1], the EC50 turned out to be 2300 nM. For the molecule IVCPRLCYELDYELCPDVCYV-NH2 (disulfide 3-15, 7-19) [IGE141], in assay [2], the “fold difference in activity against IGE120” value is 2 fold.

In the case of IVCARLCYVGGKALCPDVCYV-NH2 (disulfide 3-15, 7-19, P4A of IGE120), the “fold reduced activity against its control peptide” value in assay [2] came out at 50 fold.

B6: IGE130 (peptide)
peptide: ALCPDVCYVGGKVQCPHFCYV-NH2
modifications: disulfide 7-15, 3-19; N-terminus assumed
SMILES: CC(C)C[C@H](NC(=O)[C@H](C)N)C(=O)N[C@H]1CSSC[C@@H](C(=O)N[C@@H](Cc2ccc(O)cc2)C(=O)N[C@H](C(N)=O)C(C)C)NC(=O)[C@H](Cc2ccccc2)NC(=O)[C@H](Cc2c[nH]cn2)NC(=O)[C@@H]2CCCN2C(=O)[C@@H]2CSSC[C@H](NC(=O)[C@H](C(C)C)NC(=O)[C@H](CC(=O)O)NC(=O)[C@@H]3CCCN3C1=O)C(=O)N[C@@H](Cc1ccc(O)cc1)C(=O)N[C@@H](C(C)C)C(=O)NCC(=O)NCC(=O)N[C@@H](CCCCN)C(=O)N[C@@H](C(C)C)C(=O)N[C@@H](CCC(N)=O)C(=O)N2
B6 had an EC50 in assay [1] of 250 nM.

B7: IGE126 (peptide)
peptide: VTCPRWCYVGGKALCPDVCYV-NH2
modifications: disulfide (positions not given here); also: oxidized, disulfide-bonded Cys, pairing not given here
On to B7, for which, in assay [1], the midpoint of the response, the EC50, lay at 380 nM.

B8: IGE120 (peptide)
peptide: IVCPRLCYVGGKALCPDVCYV-NH2
modifications: disulfide (positions not given here); also: oxidized, disulfide-bonded Cys, pairing not given here
In assay [1], B8 had an EC50 of 260 nM.

B9: IGE127 (peptide)
peptide: IVCARLCYVGGKALCPDVCYV-NH2
modifications: disulfide (positions not given here); not fully specified (bridges); also: oxidized, disulfide-bonded Cys, pairing not given here
notes: P4A variant of IGE120
Take B9: in assay [1], the response was half-maximal at 13000 nM (EC50).

B10: IGE121 (peptide)
peptide: VVCPNMCYVGGKALCPDVCYV-NH2
modifications: disulfide (positions not given here); also: oxidized, disulfide-bonded Cys, pairing not given here
Take B10: the EC50 in assay [1] was determined as 340 nM. Same read-out and setting: the same measure for ALCPAVCYV-NH2 (also: antiparallel disulfide-linked homodimer, interchain C3-C7' and C7-C3', also called IGE037 dimer) [IGE089]: 64000 nM. Turning to CPHFCYFGAELCPDVCY-NH2 (disulfide (positions not given here)) [IGE170], in assay [2], the “fold difference in activity against IGE167” value was no more than 2 fold. As for Ac-CPHFCYFGAELCPDVCY-NH2 (disulfide (positions not given here)) [IGE171], the “fold difference in activity against IGE167” value in assay [2] is no more than 2 fold.

B11: IGE123 (peptide)
peptide: VKCPSLCYVGGKALCPDVCYV-NH2
modifications: disulfide (positions not given here); also: oxidized, disulfide-bonded Cys, pairing not given here
B11 registered an EC50 in assay [1] of 180 nM.

B12: IGE124 (peptide)
peptide: VPCPELCYVGGKALCPDVCYV-NH2
modifications: disulfide (positions not given here); also: oxidized, disulfide-bonded Cys, pairing not given here
As for B12, the EC50 in assay [1] was found to be 890 nM.

B13: IGE131 (peptide)
peptide: VQCPHFCYVGGKVQCPHFCYV-NH2
modifications: disulfide 3-15, 7-19
notes: The text speaks of it as D17H against IGE122
As for B13, the “fold reduced activity against IGE122” value in assay [2] was greater than 10 fold.

B14: IGE155 (peptide)
peptide: CPHFCYELDYELCPDVCY-NH2
modifications: disulfide (positions not given here); also: two intramolecular disulfide bonds, pairing not given here
Turning to B14, the “fold difference in activity against IGE134” value in assay [2] is no more than 2 fold.

B15: IGE119 (peptide)
peptide: NGCPGWCYVGGKALCPDVCYV-NH2
modifications: disulfide 7-15, 3-19; N-terminus assumed
SMILES: CC(C)C[C@@H]1NC(=O)[C@H](C)NC(=O)[C@H](CCCCN)NC(=O)CNC(=O)CNC(=O)[C@H](C(C)C)NC(=O)[C@H](Cc2ccc(O)cc2)NC(=O)[C@@H]2CSSC[C@H](NC1=O)C(=O)N1CCC[C@H]1C(=O)N[C@@H](CC(=O)O)C(=O)N[C@@H](C(C)C)C(=O)N[C@H](C(=O)N[C@@H](Cc1ccc(O)cc1)C(=O)N[C@H](C(N)=O)C(C)C)CSSC[C@H](NC(=O)CNC(=O)[C@@H](N)CC(N)=O)C(=O)N1CCC[C@H]1C(=O)NCC(=O)N[C@@H](Cc1c[nH]c3ccccc13)C(=O)N2
As for B15, the EC50 in assay [1] was found to be 1400 nM.
